# Source: article PMC4831024
# Biological target: Ku70/Ku80ΔC heterodimer, P12956;P13010
# Assay: fluorescence polarisation
# Settings: read at the highest Ku concentration, about 14 µM KuΔC; 100 nM fluorescein-labeled peptide; room temperature; 20 mM HEPES pH 7.5, 200 mM NaCl, 0.5 mM TCEP; parent: est. 190; read off a plot
substance,measurement,value
fluorescein-labelled WRN-nA peptide (N-terminal KBM of WRN) W18A,response,19 millidegrees
